Measurements from patent publication US20210238276A1 (INTEGRAL MOLECULAR, published 2021).

How the values were obtained:
Assay in all cases: flow cytometry, alanine-scan library in HEK-293T, with cytochalasin B
[1] = molecular target: T1, hsGLUT4 P224A (human, UniProt P14672 1-509)
T1 sequence: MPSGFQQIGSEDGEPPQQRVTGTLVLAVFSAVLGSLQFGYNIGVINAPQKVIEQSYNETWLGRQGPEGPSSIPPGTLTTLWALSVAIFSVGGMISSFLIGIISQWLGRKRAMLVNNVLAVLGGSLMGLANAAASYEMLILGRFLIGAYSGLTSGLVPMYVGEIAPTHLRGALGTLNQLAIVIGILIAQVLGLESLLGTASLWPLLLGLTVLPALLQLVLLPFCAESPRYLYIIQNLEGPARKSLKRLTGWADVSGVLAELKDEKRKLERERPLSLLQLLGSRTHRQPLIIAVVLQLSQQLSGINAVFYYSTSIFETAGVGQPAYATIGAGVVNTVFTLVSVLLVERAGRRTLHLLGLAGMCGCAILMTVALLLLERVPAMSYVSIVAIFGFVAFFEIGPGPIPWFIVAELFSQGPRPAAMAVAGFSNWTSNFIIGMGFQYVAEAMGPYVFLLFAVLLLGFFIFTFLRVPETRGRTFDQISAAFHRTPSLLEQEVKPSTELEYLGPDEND
Outline: (§1)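 HEK-293T cells expressing individual GLUT4 alanine mutants were stained 48 h post-transfection with anti-GLUT4 scFv MAbs (2 μg/ml), then biotinylated secondary and streptavidin-PerCP, and read by high-throughput flow cytometry. Where used, cytochalasin B (10 uM final) was given for 30 min before and during primary antibody staining.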

[2] = molecular target: T2, hsGLUT4 G65A (human, UniProt P14672 1-509)
T2 sequence: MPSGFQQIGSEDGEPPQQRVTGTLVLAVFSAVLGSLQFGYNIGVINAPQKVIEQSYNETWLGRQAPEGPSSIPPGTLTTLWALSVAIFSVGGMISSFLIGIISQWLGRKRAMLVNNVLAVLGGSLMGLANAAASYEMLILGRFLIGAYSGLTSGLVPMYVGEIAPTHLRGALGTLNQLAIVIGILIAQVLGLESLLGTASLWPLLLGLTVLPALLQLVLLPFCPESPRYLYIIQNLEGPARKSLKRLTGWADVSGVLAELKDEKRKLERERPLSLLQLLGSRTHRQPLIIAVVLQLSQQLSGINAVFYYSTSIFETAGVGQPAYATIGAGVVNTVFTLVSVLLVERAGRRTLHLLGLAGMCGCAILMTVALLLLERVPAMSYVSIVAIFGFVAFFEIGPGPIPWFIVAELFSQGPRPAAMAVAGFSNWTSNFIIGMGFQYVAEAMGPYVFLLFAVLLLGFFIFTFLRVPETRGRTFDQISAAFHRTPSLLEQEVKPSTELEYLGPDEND
Outline: as §1

[3] = molecular target: T3, hsGLUT4 I313A (human, UniProt P14672 1-509)
T3 sequence: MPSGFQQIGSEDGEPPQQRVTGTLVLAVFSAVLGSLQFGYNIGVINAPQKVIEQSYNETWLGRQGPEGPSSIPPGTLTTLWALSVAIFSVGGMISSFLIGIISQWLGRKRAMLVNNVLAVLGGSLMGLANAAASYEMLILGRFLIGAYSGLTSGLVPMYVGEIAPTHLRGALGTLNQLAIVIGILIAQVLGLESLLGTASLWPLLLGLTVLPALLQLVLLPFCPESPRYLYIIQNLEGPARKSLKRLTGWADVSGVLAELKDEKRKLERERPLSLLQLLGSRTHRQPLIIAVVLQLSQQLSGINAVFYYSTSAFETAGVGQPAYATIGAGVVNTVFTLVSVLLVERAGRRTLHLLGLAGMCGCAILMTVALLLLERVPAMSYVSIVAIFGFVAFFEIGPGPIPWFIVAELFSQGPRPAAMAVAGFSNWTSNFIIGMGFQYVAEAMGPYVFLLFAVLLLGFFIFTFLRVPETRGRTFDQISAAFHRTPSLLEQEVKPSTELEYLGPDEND
Outline: as §1

[4] = molecular target: T4, hsGLUT4 Y502A (human, UniProt P14672 1-509)
T4 sequence: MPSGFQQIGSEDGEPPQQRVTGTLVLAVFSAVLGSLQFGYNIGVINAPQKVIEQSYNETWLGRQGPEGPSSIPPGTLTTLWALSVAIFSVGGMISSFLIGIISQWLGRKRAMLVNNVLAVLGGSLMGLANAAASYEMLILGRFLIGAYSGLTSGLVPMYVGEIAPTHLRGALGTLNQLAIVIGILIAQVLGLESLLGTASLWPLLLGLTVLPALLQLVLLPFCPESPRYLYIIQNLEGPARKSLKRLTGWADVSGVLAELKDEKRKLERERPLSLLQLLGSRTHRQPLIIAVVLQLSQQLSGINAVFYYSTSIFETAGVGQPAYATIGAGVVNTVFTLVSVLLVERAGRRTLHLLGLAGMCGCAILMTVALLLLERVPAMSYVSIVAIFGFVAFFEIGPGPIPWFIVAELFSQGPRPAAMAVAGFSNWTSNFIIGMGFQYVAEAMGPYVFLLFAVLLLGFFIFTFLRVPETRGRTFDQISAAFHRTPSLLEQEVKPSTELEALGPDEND
Outline: as §1

B1: AB102 (Fc fusion)
scFv: ALTQPSSVSANLGGTVKITCSGGGSYGYGWYQQKSPGSAPVTVIYSNDQRPSDIPSRFSGSKSGSTATLTITGVRAEDEAIYYCGSTDSDYVGIFGAGTTLTVLGQSSRSSGGGGSSGGGGSAVTLDESGGGLQTPGGTLSLVCKASGFDFSSYATIWVRQAPGKGLEWVAGISGTGTGSSTGYAPAVKGRATISRDNGQSTVRLQLNNLRAEDTGSYFCAKSTGYGDSWIYPDSIDAWGHGTEVIVSS
notes: also called MAb AB102; not shown: Fc fragment of human IgG1, cloned in frame with the scFv
% of binding to wild type GLUT4 [1]: 29% | % of binding to wild type GLUT4 [2]: 95% | % of binding to wild type GLUT4 [3]: 15% | % of binding to wild type GLUT4 [4]: 94%
